No end group written: not given here.
Molecular target: T1, recombinant MCL1 (human, UniProt Q07820 1-350)
T1 construct: MCL1, human; Uniformly 15N-labelled for NMR; also called 15N MCL1; source: E. coli BL21 (DE3), purified (nickel chromatography, gel filtration)
Assay: fluorescence polarisation; competitive FPA: 50 nM recombinant MCL1, 10 nM F-BAK, titration of unlabeled p73 peptide or p73DBD, 1× PBS pH 7.4
Details: both partners purified

T1 sequence (Q07820 whole entry): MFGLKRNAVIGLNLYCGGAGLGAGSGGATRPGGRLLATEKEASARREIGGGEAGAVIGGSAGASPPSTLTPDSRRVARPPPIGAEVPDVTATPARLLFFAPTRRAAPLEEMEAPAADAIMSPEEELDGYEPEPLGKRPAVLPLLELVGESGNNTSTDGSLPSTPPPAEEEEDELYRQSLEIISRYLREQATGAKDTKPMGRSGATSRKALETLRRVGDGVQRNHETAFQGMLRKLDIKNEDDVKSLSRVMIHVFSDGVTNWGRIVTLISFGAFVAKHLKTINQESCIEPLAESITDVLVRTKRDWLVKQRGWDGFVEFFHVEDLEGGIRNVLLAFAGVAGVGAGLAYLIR

IC50 [µM] | Binder
> 10 | DEDTYYLQVRG-NH2 [p73TD-derived peptide β1]
> 10 | PQPLVDSYRQQQQLLQR [p73TD-derived peptide α2]

Reference: publication PMC7641127, “MCL1 binds and negatively regulates the transcriptional function of tumor suppressor p73” (Cell Death & Disease, 2020)
